This is an account of results in US5558864A, “Humanized and chimeric anti-epidermal growth factor receptor monoclonal antibodies” (Merck Patent Gesellschaft Mit Beschrankter Haftung, dated 1996).

Substitutions are numbered along the chain they refer to. “Also recorded” adds a separate entry of the source.

Experiment [1] relates to EGFR solubilized from A431 membranes. Nature of the experiment: Competitive binding of purified antibodies against biotin-labelled MAb 425 (Example 11). The arrangement: species or system human. Particulars: competition with biotin-labelled MAb 425, inhibition curves FIG. 10. As for the experimental part:
Biotin-labelled MAb 425 was Used to compete with unlabelled MAb 425 or derivates for binding to EGFR. Biotin-labelling occurred according to standard methods. EGFR was solubilized from A431 membranes by standard methods. A431 cells were commercially purchased. Detection was done after incubation with POD-conjugated streptavidin and substrate.

For experiment [2], the system named is EGFR protein. Nature of the experiment: ELISA for antigen binding to EGFR. The settings on record: transfected cell supernatants, detection with anti-human IgG; VH versions co-transfected with RVL a425, ranked: highest > followed by > then followed by > low > never detectable. Here is the method: Human IgG present in COS cell supernatants was detected by ELISA: In the ELISA assay for human IgG, 96-well plates were coated with goat anti-human IgG (whole molecule) and human IgG in the samples that bound to the plates was detected using alkaline phosphatase-conjugated goat anti-human IgG (gamma-chain specific). Purchasable purified human IgG was used as a standard. Binding to the antigen recognized by MAb 425 was determined in a second ELISA. Plates were coated with an EGFR protein preparation (obtainable, for example, according to Rodeck et al., 1980) and antibodies binding to EGFR were detected using either an anti-human IgG (gamma-chain specific) peroxidase conjugate (for chimeric and reshaped human antibodies) or an anti-mouse IgG (whole molecule) peroxidase conjugate (for the mouse MAb 425 antibody) (both conjugates supplied by Sigma). Purified murine MAb 425 was used as a standard.
For orientation: In an ELISA, binding on a coated surface is turned into a signal by an enzyme label.

The test system of experiment [3] is EGFR protein. Nature of the experiment: Competition binding assay with biotinylated murine MAb 425 (cell supernatants). On the set-up: species or system human. The settings on record: unpurified COS cell supernatants; relative levels of binding, not accurate affinity. As for the experimental part:
Murine MAb 425 was biotinylated using a correspondingly purchasable kit. ELISA plates were coated with an optimal dilution of the EGFR protein. Dilutions of the COS cell supernatants, in a volume of 50 μl, were mixed with 50 μl of the biotinylated murine MAb 425 (estimated by ELISA to be 1.75 μg/ml). Each COS cell supernatant was tested in duplicate. Plates were incubated at room temperature, overnight. Bound biotinylated murine MAb 425 was detected by the addition of a purchasable streptavidin horseradish peroxidase complex. A control with no competitor present allowed a value of percentage of inhibition or blocking to be calculated for each COS cell supernatant as follows: […]

Experiment [4] concerns EGF-receptor positive membranes (A431). Nature of the experiment: Competition of 125I-labelled EGF and antibodies for EGF-receptor, SPA (Example 12). Type of experiment: binding, human. Particulars: purified antibodies, 125I-EGF, FIG. 11. Here is the method: Different probes of purified murine, chimeric and reshaped MAbs 425 were tested for their potency to compete with EGF regarding their binding to EGFR. The test was performed by competing ^125 I-labelled EGF (Amersham Corp., GB) and various antibodies for binding to EGF-receptor positive membranes (A431). The test system is based on SPA technology (Amersham).

Experiment [5] has as its system epidermoid and colorectal carcinoma-derived cell lines. The settings on record: in vitro; cited from earlier work.
For experiment [6], the system named is human epidermal growth factor receptor (EGFR). Particulars: cited from earlier work.
The target in experiment [7] is T1, EGFR protein preparation (epidermal growth factor receptor) (human, UniProt P00533). The experiment in a line: competition ELISA on EGFR-coated plates, competitor biotinylated murine MAb 425 (FIG. 7, Panel B).
For experiment [8], the target named is T1, EGFR protein preparation (epidermal …). The experiment in a line: antigen-binding ELISA on EGFR protein, supernatant of co-transfected cells.
Experiment [9] shares this target. The experiment in a line: antigen-binding ELISA on EGFR protein, COS supernatants, with RVL a425 (FIG. 6).
For experiment [10] the target is unchanged. The experiment in a line: antigen-binding ELISA on EGFR protein, cell supernatants (FIG. 8, Panel A).
Experiment [11] has the same target. The experiment in a line: antigen-binding ELISA on EGFR protein, cell supernatants.
Experiment [12] shares this target. Nature of the experiment: antigen-binding ELISA on EGFR protein, COS supernatants (FIG. 6).

For “Chimeric 425 antibody: mouse 425 VL and VH regions with human kappa and gamma-1 constant regions”, the “binding potency (avidity) to EGFR” value in [1] was “similar”. The “binding to EGFR in antigen-binding ELISA” value in [2] was “binds well to EGFR protein”. Besides, the “competition with labelled mouse 425 antibody for binding to antigen (percent inhibition of binding, relative avidity)” value in [3] is listed as “just slightly less than that obtained when unlabelled mouse 425 antibody is competed with labelled mouse 425 antibody”. For the same molecule, the “potency to compete with EGF for binding to EGFR” value in experiment [4] was “the same”.
As to “MAb 425: murine monoclonal antibody raised against human A431 carcinoma cells, binds EGFR; hybridoma ATCC HB 9629 [reference compound]”, in [1], the “binding potency (avidity) to EGFR” value is recorded as “similar”. For the same molecule, in experiment [5], the tumor cell growth result is listed as “suppress tumor cell growth”. Besides, the “binding to EGFR epitope” value in experiment [6] is recorded as “bind to a polypeptide epitope on the external domain of the human epidermal growth factor receptor (EGFR)”. Besides, the “inhibition of EGF binding to EGFR” value in experiment [6] (low and high affinity EGFR sites) was “inhibit the binding of epidermal growth factor (EGF) at both low and high affinity EGFR sites”. The “potency to compete with EGF for binding to EGFR” value in experiment [4] was “the same; also recorded: nearly identical”.

B1: reshaped human 425 antibody with RVL a425 and RVH i425 (antibody, V domains shown)
VH: QVQLVQSGAEVKKPGASVKVSCKASGYTFTSHWMHWVRQAPGQGLEWVGEFNPSNGRTNYNEKFKSKATMTVDTSTNTAYMELSSLRSEDTAVYYCASRDYDYDGRYFDYWGQGTLVTVSS
VL: DIQMTQSPSSLSASVGDRVTITCSASSSVTYMYWYQQKPGKAPKLLIYDTSNLASGVPSRFSGSGSGTDFTFTISSLQPEDIATYYCQQWSSHIFTFGQGTKVEIK
Take B1: the binding result in [7] is reported as “binds”.

B2: antibody with chimeric 425 light chain and reshaped human 425 heavy chain version a (antibody, V domains shown)
VH: B1 VH with T30S, K67R, A68V, V72L
VL: QIVLTQSPAIMSASPGEKVTMTCSASSSVTYMYWYQQKPGSSPRLLIYDTSNLASGVPVRFSGSGSGTSYSLTISRMEAEDAATYYCQQWSSHIFTFGSGTKLEIK
Consider B2, for which the binding result in experiment [8] is “no binding”.

B3: reshaped human 425 antibody with RVL a425 and RVH f425 (antibody, V domains shown)
VH: B1 VH with T30S, V48I
VL: B1 VL
Regarding B3, in [9], the binding result is “binds”.

B4: reshaped human 425 antibody with RVL b425 and RVH c425 (antibody, V domains shown)
VH: B1 VH with T30S
VL: B1 VL with F70Y
B4: in [10], the binding result was “binds”.

B5: reshaped human 425 antibody with RVL a425 and RVH h425 (antibody, V domains shown)
VH: B1 VH with K67R, A68V
VL: B1 VL
On to B5, for which the binding result in experiment [9] is reported as “binds”.

B6: reshaped human 425 antibody with RVL a425 and RVH c425 (antibody, V domains shown)
VH: B1 VH with T30S
VL: B1 VL
With B6, in [9], the binding result was “binds”.

B7: reshaped human 425 antibody with RVL a425 and RVH a425 (antibody, V domains shown)
VH: B1 VH with T30S, K67R, A68V, V72L
VL: B1 VL
Take B7: the binding result in [8] was “no binding”.

B8: reshaped human 425 antibody with RVL a425 and RVH b425 (antibody, V domains shown)
VH: B1 VH with T30S, K67R, A68V
VL: B1 VL
B8: the binding result in experiment [9] is “binds”.

B9: antibody with reshaped human 425 light chain version a and chimeric 425 heavy chain (antibody, V domains shown)
VH: QVQLQQPGAELVKPGASVKLSCKASGYTFTSHWMHWVKQRAGQGLEWIGEFNPSNGRTNYNEKFKSKATLTVDKSSSTAYMQLSSLTSEDSAVYYCASRDYDYDGRYFDYWGQGTTLTVSS
VL: B1 VL
Regarding B9, the binding result in experiment [8] is on record as “binds”.

B10: reshaped human 425 antibody with RVL b425 and RVH b425 (antibody, V domains shown)
VH: B1 VH with T30S, K67R, A68V
VL: B1 VL with F70Y
Turning to B10, the binding result in experiment [11] is recorded as “binds”.

B11: reshaped human 425 antibody with RVL a425 and RVH d425 (antibody, V domains shown)
VH: B1 VH with T30S, V48I, K67R, A68V, V72L
VL: B1 VL
As to B11, the binding result in experiment [12] is on record as “no binding”.
